Reference: patent US20240166695A1, “PEPTIDIC POSITIVE ALLOSTERIC MODULATORS TARGETING TRPV1” (priority 2021, published 2024)
Changes are numbered by the printed parent chain.

B1: De1-CFP (designed binder, not shown: large carriers)
chain: NGYSSEDKLRIAKRHLLPKQIERNALKKGELFVSEFAILGIILFYTDEAGVRGLEREISKLCRKAVKQLLLDKSTTSSHASGFHLHDYLGVMR
B2: De4-CFP (designed binder, not shown: large carriers)
chain: LPESPRFAQKIWQQSVIGDYLARFKNDRVKALKAMEDSSNNSSMHRFAEFFAKAFEDLHRYLEEL
B3: De2-CFP (designed binder, not shown: large carriers)
chain: B1 chain with S4W, L9E, F32K, S34W, L39F, D47W, S77R, H79W

Legend:
TRPV1-YFP [1] = test: FRET ratio regression, design-CFP and TRPV1-YFP co-expressed in HEK293 cells; design: Apparent KD (FRET ratio fit): unit not given here
TRPV1-YFP [2] = test: spectraFRET in live HEK293 cells, CFP on design, YFP on TRPV1; indistinguishable from CFP+YFP negative control
TRPV1-YFP [3] = test: spectraFRET in live HEK293 cells, CFP on design, YFP on TRPV1

Binder	Apparent KD (FRET ratio fit) (TRPV1-YFP [1])	FRET ratio max (TRPV1-YFP [1])	FRET efficiency (TRPV1-YFP [2])	FRET efficiency (TRPV1-YFP [3])
B1	120000	3.86	–	–
B2	9.5e+09	–	3.8%	–
B3	75000	2.35	–	7.4%
